Experimental findings from patent US20220340649A1 (SENELIX, published 2022) are described below.

The target in experiment [1] is T1, mouse YKL-40 (mouse, UniProt Q61362 30-389).
T1 construct: Antigen protein immobilized in ELISA and on the Octet AR2G sensor; also called mYKL-40; mouse YKL-40 antigen
Description: Octet BLI, antigen immobilized on AR2G sensor. As for the experimental part:
(§1) To reconfirm the EC₅₀ value measured by ELISA, the affinity for 4E3-F2 (M3) and 3A10-F1 (H1) was measured using an Octet instrument. Cross-binding was investigated for the two antibodies using hYKL-40 and mYKL-40. Each antigen protein was immobilized using the AR2G (Amine Reactive 2nd Generation) sensor, and the direct immobilization method of binding each antibody with different concentrations (0-1 μM) was employed.
For orientation: BLI is a label-free optical method that tracks binding on a fibre tip over time.

In experiment [2] the target is T2, human YKL-40 (chitinase-3-like protein 1) (human, UniProt P36222 22-383).
T2 construct: Antigen protein immobilized in ELISA and on the Octet AR2G sensor; also called hYKL-40; human YKL-40 antigen
T2 sequence (P36222 22-383 limits assumed): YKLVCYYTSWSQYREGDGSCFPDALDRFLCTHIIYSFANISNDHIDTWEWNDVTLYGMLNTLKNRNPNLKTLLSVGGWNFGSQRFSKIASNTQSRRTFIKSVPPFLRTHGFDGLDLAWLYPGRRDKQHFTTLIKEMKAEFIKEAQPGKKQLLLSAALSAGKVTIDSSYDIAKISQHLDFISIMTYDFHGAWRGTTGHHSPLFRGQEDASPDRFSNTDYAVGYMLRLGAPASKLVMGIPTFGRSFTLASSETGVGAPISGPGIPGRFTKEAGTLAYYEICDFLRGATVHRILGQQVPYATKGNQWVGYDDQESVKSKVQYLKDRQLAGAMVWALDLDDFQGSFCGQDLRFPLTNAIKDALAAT
The experiment is described as follows: ELISA, IgG titrated on hYKL-40, A450nm normalized.

Experiment [3] deals with T2, human YKL-40 (chitinase-3-like protein …). Description: Octet BLI, antigen immobilized on AR2G sensor, antibody 0-1 µM; hYKL-40 on the sensor. On the procedure:
as §1

The target is the same in experiment [4]. The experiment is described as follows: ELISA, purified IgG on antigen.
In experiment [5] the target is T1, mouse YKL-40. Description: ELISA, purified IgG on antigen. A general note: ELISA stands for enzyme-linked immunosorbent assay.
The target in experiment [6] is T1, mouse YKL-40. The experiment is described as follows: Octet BLI, antigen immobilized on AR2G sensor, antibody 0-1 µM; mYKL-40 on the sensor. On the procedure: as §1
Experiment [7] deals with T2, human YKL-40 (chitinase-3-like protein …). Description: ELISA, Fab protein titrated on hYKL-40 antigen, A450nm normalized.
Experiment [8] addresses T1, mouse YKL-40. The experiment is described as follows: ELISA, Fab protein titrated on mYKL-40 antigen, A450nm normalized.

One may read the EC50 as the concentration giving half of the maximal effect. For orientation: Kd means the equilibrium constant for the complex coming apart. Low values mean a tighter complex, high ones a looser complex.

T1 sequence (Q61362 30-389): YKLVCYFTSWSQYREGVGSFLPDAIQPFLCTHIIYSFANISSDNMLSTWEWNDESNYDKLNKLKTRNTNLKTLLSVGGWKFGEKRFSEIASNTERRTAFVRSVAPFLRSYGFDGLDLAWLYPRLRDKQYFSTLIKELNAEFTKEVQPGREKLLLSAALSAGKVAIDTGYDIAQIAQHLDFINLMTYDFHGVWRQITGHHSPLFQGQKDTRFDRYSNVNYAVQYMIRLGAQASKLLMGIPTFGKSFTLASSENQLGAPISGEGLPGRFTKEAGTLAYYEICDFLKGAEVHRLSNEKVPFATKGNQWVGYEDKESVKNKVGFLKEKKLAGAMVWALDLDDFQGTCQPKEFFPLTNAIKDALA

B1: 3A10-F1 (H1) human IgG antibody (antibody, V domains shown)
VH: EVQLVESGGGLVQPGGSLRLSCAASGFTFSNYAMSWVRQAPGKGLEWVSGISGSGGTTYYADSVKGRFTISRDNSKNTLYLQMNSLRAEDTAVYYCAGVGTFDVWGQGTLVTVSS
VL: DIQMTQSPSSLSASVGDRVTITCRASQTISSWLNWYQQKPGKAPKLLIYAASRLQSGVPSRFSGSGSGTDFTLTISSLQPEDFATYYCQQSYSTPLTFGQGTKVEIK
notes: The phage clone was converted to human IgG and produced in Expi293 cells; also called human YKL-40 antibody 3A10-F1 (H1)
Consider B1, for which the binding result in experiment [1] is “no binding (tested: 0-1 µM)”. In addition, the EC50 in experiment [2] came to 0.5 nM; in experiment [4], 0.582 nM. The same molecule gave a Kd in experiment [3] of 0.05 nM.

B2: 4E3-F2 (M3) human IgG antibody (antibody, V domains shown)
VH: QVQLVQSGAEVKKPGSSVKVSCKASGGTFSSYDIHWVRQAPGQGLEWMGIISPYLGITIYAQKFQGRVTITADESTSTAYMELSSLRSEDTAVYYCARRYFYYQSEAFDYWGQGTLVTVSS
VL: DIQMTQSPSSLSASVGDRVTITCRASQSISNYLNWYQQKPGKAPKLLIYAASTLQSGVPSRFSGSGSGTDFTLTISSLQPEDFATYYCQQSYSFPLTFGQGTKVEIK
notes: The phage clone was converted to human IgG and produced in Expi293 cells; also called mouse YKL-40 antibody 4E3-F2 (M3)
As to B2, the results for the Kd in experiment [3] and in experiment [6] were 57 nM and 67 nM, respectively. The same molecule came in with an EC50 in experiment [5] of 0.067 nM.

B3: 3A10-F1 (H1) Fab (Fab, V domains shown)
VH: EVQLVESGGGLVQPGGSLRLSCAASGFTFSNYAMSWVRQAPGKGLEWVSGISGSGGTTYYADSVKGRFTISRDNSKNTLYLQMNSLRAEDTAVYYCAGVGTFDVWGQGTLVTVSS
VL: DIQMTQSPSSLSASVGDRVTITCRASQTISSWLNWYQQKPGKAPKLLIYAASRLQSGVPSRFSGSGSGTDFTLTISSLQPEDFATYYCQQSYSTPLTFGQGTKVEIK
notes: Fab from the Fab-I phage library; also called Fab protein of 3A10-F1 (H1)
As to B3, it took 0.74 nM to reach a half-maximal effect in experiment [7] (EC50).

B4: 4E3-F2 (M3) Fab (Fab, V domains shown)
VH: QVQLVQSGAEVKKPGSSVKVSCKASGGTFSSYDIHWVRQAPGQGLEWMGIISPYLGITIYAQKFQGRVTITADESTSTAYMELSSLRSEDTAVYYCARRYFYYQSEAFDYWGQGTLVTVSS
VL: DIQMTQSPSSLSASVGDRVTITCRASQSISNYLNWYQQKPGKAPKLLIYAASTLQSGVPSRFSGSGSGTDFTLTISSLQPEDFATYYCQQSYSFPLTFGQGTKVEIK
notes: Fab from the Fab-II phage library; also called Fab protein of 4E3-F2 (M3)
Consider B4, for which the EC50 came out at 23.6 nM in experiment [7] and 4.3 nM in experiment [8].
